Laboratory results: the RNAGym collection of RNA variant scans (doi:10.1073/pnas.2313332121)
Fewer inactive variants are shown than the library holds.

B1: TPR 5TU (parent)
chain: GGAUCUUCUCGAUCUAACAAAAAAGACAAAUCUGCCACAAAGCUUGAGAGCAUCUUCGGAUGCAGAGGCGGCAGCCUUCGGUGGCGCGAUAGCGCCAACGUUCUCAACUAUGACACGCAAAACGCGUGCUCCGUUGAAUGGAGUUUAUCAUG

Variants of: B1
Assay: polymerase ribozyme fitness, log enrichment relative to wild type (log ratio); higher = more active; in vitro selection for triplet polymerase activity
Procedure, shortened: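 Each subunit of a heterodimeric triplet polymerase ribozyme was mutagenized into a library by PCR, transcribed, and subjected to one round of in vitro selection, run in triplicate. Libraries were annealed with a biotinylated primer, the partner subunit and triplets, incubated frozen at −7 °C, and extended constructs were gel-excised, captured on streptavidin beads and recovered by RT-PCR. Input and output libraries were sequenced on Illumina, keeping genotypes with ≥10 input reads and ≥1 read per output. Fitness is log base 2 of genotype enrichment divided by wild-type enrichment, from inverse-variance-weighted replicate averages.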

Row | Variant | polymerase ribozyme fitness (log ratio)
1 | U55G G58C U144G | -0.023
2 | G65A G88U A150G | ≤ -4.2
3 | C76A C85A C95A A120G | -2.33
4 | C14G C54A C57A G62A U78A C85U G88A A115U | ≤ -4.2
5 | A16U C54A A60C A73C G86A A89C A119G G126U | ≤ -4.2
6 | U9G C27G A28G A41C C57U U82G G92C G140U | ≤ -4.2
7 | G50A C54U | -1.32
8 | C14G A26G U44A C99G C103U | ≤ -4.2
9 | A47G C69U | -1.14
10 | G25U A26G C32G C85G A106G C129U G140C G143A | ≤ -4.2
11 | G42U A73C C95U A98C U144A | ≤ -4.2
12 | U56A C85U U144C | -0.306
13 | A26C A30G U45A A60G A97U U104G G143U | ≤ -4.2
14 | G25U C43U U53A C87A A91C G140A | ≤ -4.2
15 | A12U A22G U45A A49U A115G | ≤ -4.2
16 | C93U G124U | -2.66
17 | A23C U53A C57U C96G C103G | ≤ -4.2
18 | C51U A142C | -0.909
19 | A41C A150U | 0.683
20 | G50A A73G A150G | ≤ -4.2
21 | A19U A30U C36G A97U | ≤ -4.2

Row | Variant | polymerase ribozyme fitness (log ratio)
22 | A49G C57U | -0.525
23 | A49C C87A C95A C123A | ≤ -4.2
24 | C38U G80U U134G A142C G152U | -3.64
25 | C14G A17C U44A G81A C85U C125A | ≤ -4.2
26 | U53C U56A G58A C76A A120G U134C | -3.01
27 | A3C C8U C27U G68A C87U A91C C93G | ≤ -4.2
28 | A39C G80C C85U A89G C116G | ≤ -4.2
29 | A64C C85G G140A | ≤ -4.2
30 | C93U A121U | -0.267
31 | A28U A64G G68U G83U A121C G143A | ≤ -4.2
32 | A16U A37C A52G G84A G140C | ≤ -4.2
33 | A22G A37C G50C A64G G65C G88A A110G | ≤ -4.2
34 | C63G C75U C93U A120U | -0.964
35 | A40G A49C U53A | ≤ -4.2
36 | C51U C57A C63U G65C | ≤ -4.2
37 | A20U C43U C96U C114U G141C | ≤ -4.2
38 | C35A A98U A107U A137U | ≤ -4.2
39 | G65U G84U G88A | ≤ -4.2
40 | G50C G83C U135A | ≤ -4.2
41 | G48U C93U C95A A97G A98U G117C | -3.43
42 | G59A A97G | -0.633

Row | Variant | polymerase ribozyme fitness (log ratio)
43 | U7G U13A A17U A98U A107C U146C | ≤ -4.2
44 | U6A U139C | -3.88
45 | U151G G152U | -3.49
46 | U61A U102C U111G A115G C123A U139G | ≤ -4.2
47 | A37U A47G U53A G92C A106U A137G G141U | ≤ -4.2
48 | C103U G128A | -3.93
49 | A22G U56A C85U | -0.116
50 | G25U G62A | -2.84
51 | G58A U61A | -0.894
52 | G42U C43G G86U G94U U144A | ≤ -4.2
53 | A22G G59C G62C C63U C87G A89U A120C G143C | -3.94
54 | C5A A24C G80C C149G | ≤ -4.2
55 | A49U G92U | -0.559
56 | C10G C18G A19C C87A A98U A115U G117U | ≤ -4.2
57 | C57U C95A | -0.112
58 | G59A C85G | -2.1
59 | C32U C36G A39U G59U A120G | -4.07
60 | U13G C93A G141U | -4.01
61 | C36U A41C A47C A49U U55A C76G G94A A110C A113G U148G | -4.13
62 | C8A A29C A37C A47U A119G | ≤ -4.2
63 | C8A U15C C75A U109C | ≤ -4.2

Row | Variant | polymerase ribozyme fitness (log ratio)
64 | A3G A19G A28U C99U U130G | ≤ -4.2
65 | A16U A28C U55A C69A G71A G88C U102G C123U U130G | ≤ -4.2
66 | U55C A91G A106C C129U C131U | ≤ -4.2
67 | U78G G126U | ≤ -4.2
68 | U31A U53A G83U G100C G133A | ≤ -4.2
69 | A49U G50U C125U | -1.77
70 | A17U C69G G80C A107U C131U U145G | ≤ -4.2
71 | C32G G94A A97U | ≤ -4.2
72 | G50A G58A U78A G94A G141U | ≤ -4.2
73 | C36G A40C G42C C54U G68A C118G C131A U135G C149A | ≤ -4.2
74 | U56A C76U A113C | -2.48
75 | U4A U61A G94A | -1.99
76 | A40C C99U A137U U146A | -4.14
77 | G100A U146C | -4.17
78 | A24U U44G A66C G143A | -4.09
79 | A49U G50U U53G A106U A122G | ≤ -4.2
80 | G70A G86A U90G C93G A110U C114U U134A | ≤ -4.2
81 | U6C A22U U31G C93A C114G | ≤ -4.2
82 | U15C U56A G94A A142G | -0.297
83 | A41U C54A C93A G126U | ≤ -4.2
84 | G100A G136U A142U | ≤ -4.2
